The source of these data is the supplement of paper PMC10567573.

B1: ANKRD40 (parent)
chain: VRIQNPSLRENDFIEIELDRQELT
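Also: lentivirally expressed fusions sorted by FACS into six bins by GFP to DsRed ratio, PSI derived from sequencing read proportions per bin multiplied by bin number.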

Variants of B1 are the subject of this series. In words: protein stability index of a GFP-peptide fusion (GPS, HEK-293T) (PSI 1-6); higher = more stable. As to conditions: c terminus: a fixed tail appended.
Consider VRIQNPYLRENDFIEIELDRQELT, for which the protein stability index stood at 2.16.
Consider VRIQNPLLRENDFIEIELDRQELT, for which the protein stability index is 2.09.
With VRIQNPRLRENDFIEIELDRQELT, the protein stability index came to 2.39.
The value for VRIQNPVLRENDFIEIELDRQELT was 2.81.
For the variant VRIQNPMLRENDFIEIELDRQELT, the protein stability index amounted to 2.01.
As for VRIQNPFLRENDFIEIELDRQELT, the protein stability index was found to be 1.45.
For the variant VRIQNPSLRENDFIEIELDRQELM, the protein stability index came out at 2.19.
In the case of VRIQNPSTRENDFIEIELDRQELT, the protein stability index is 3.42.
Consider VRIQNPSNRENDFIEIELDRQELT, for which the protein stability index was 2.43.
The same measure for VRIQNPSLRENDFIEIELSRQELT: 1.92; for VRIQNPSLRENDFIEIELNRQELT: 1.94.
For VRIQNPSLRENDFIEIELIRQELT, the protein stability index turned out to be 1.91.
Take VRIQNPSLRENDFIEIELWRQELT: the protein stability index came to 1.54.
For the variant VRIQNPSLRDNDFIEIELDRQELT, the protein stability index came out at 2.31.
Take VRIQNPSLRRNDFIEIELDRQELT: the protein stability index came out at 1.84.
With VRIQNPSLRANDFIEIELDRQELT, the protein stability index amounted to 2.27.
As to VRIQNPSLRINDFIEIELDRQELT, the protein stability index worked out at 2.
VRIQNPSLRHNDFIEIELDRQELT: the protein stability index worked out at 2.38.
Regarding VRIQNPSLRYNDFIEIELDRQELT, the protein stability index was 1.51.
For VRIQNPSLRENDFIEIELDQQELT, the protein stability index was found to be 2.57.
Regarding VRIQNPSLRENDFIEIELDLQELT, the protein stability index turned out to be 2.81.
As to VRIQNPSLRENDFIEIELDPQELT, the protein stability index is 1.76.
Consider VRIQNPSLRENDFIEIELDRHELT, for which the protein stability index came to 2.12.
The value for VRIQNPSLRENDFIEIELDRIELT was 1.31.
As to VRIQNPSLRENDFIEIELDRPELT, the protein stability index is 2.46.
As for VRIQNPSLRENDFIEIELDRWELT, the protein stability index came to 1.73.
As to VRIQNPSLRENDFIEIELDREELT, the protein stability index stood at 2.82.
Take VRIQNPSLRENDFIEIELDRSELT: the protein stability index was 2.08.
The same measure for VRIQNPSLRENDFIEIELDRAELT: 2.05.
Turning to VRIQNPSLRENDFIEIETDRQELT, the protein stability index was 4.51.
VRIQNPSLRENDFIEIEYDRQELT: the protein stability index stood at 3.03.
The same measure for VRIQNPSLRENDFIEIEWDRQELT: 1.82; for VRIQNPSLRENDYIEIELDRQELT: 2.42; for VRIQNPSLRENDKIEIELDRQELT: 3.72.
Take VRIQNPSLRENDEIEIELDRQELT: the protein stability index was found to be 4.6.
On to VRIQNPSLRENDQIEIELDRQELT, for which the protein stability index came out at 4.32.
Take VRIQNPSLRENVFIEIELDRQELT: the protein stability index worked out at 2.2.
The value for VRIQNPSLRENAFIEIELDRQELT was 1.81.
Take VRIQNPSLRENHFIEIELDRQELT: the protein stability index turned out to be 2.11.
VRIQNPSLRENGFIEIELDRQELT: the protein stability index worked out at 1.68.
In the case of VRIQNPSLRENIFIEIELDRQELT, the protein stability index is 2.08.
Regarding VRIQNPSLRENNFIEIELDRQELT, the protein stability index amounted to 2.64.
VRIQNPSLRENDFIEIILDRQELT: the protein stability index amounted to 1.97.
Regarding VRIQNPSLRENDFIEIFLDRQELT, the protein stability index came to 1.93.
For the variant VRIQNPSLRENDFIEIGLDRQELT, the protein stability index worked out at 3.22.
In the case of VRIQNPSLRENDFIEILLDRQELT, the protein stability index stood at 1.98.
With VRIQNPSLRENDFIEIRLDRQELT, the protein stability index was 2.14.
For the variant VEIQNPSLRENDFIEIELDRQELT, the protein stability index came to 4.16.
On to VWIQNPSLRENDFIEIELDRQELT, for which the protein stability index stood at 1.74.
The value for VNIQNPSLRENDFIEIELDRQELT was 4.11; that for VRILNPSLRENDFIEIELDRQELT was 1.89.
VRIHNPSLRENDFIEIELDRQELT: the protein stability index is 2.11.
As for VRISNPSLRENDFIEIELDRQELT, the protein stability index came out at 2.29.
Regarding VRIQWPSLRENDFIEIELDRQELT, the protein stability index came out at 2.23.
Turning to VRIQFPSLRENDFIEIELDRQELT, the protein stability index was 2.28.
As for VRIQNPSLRENDFIEIELDRQEWT, the protein stability index amounted to 2.42.
The value for VRIQNPSLRENDFIEIELDRQEHT was 3.92; that for VRIQNPSLRENDFIEIELDRQEKT was 3.69; that for VRIQNDSLRENDFIEIELDRQELT was 2.38.
With VRIQNMSLRENDFIEIELDRQELT, the protein stability index came to 2.18.
With VRIQNYSLRENDFIEIELDRQELT, the protein stability index is 1.73.
The value for VRIQNPSLLENDFIEIELDRQELT was 2.48; that for VRIQNPSLSENDFIEIELDRQELT was 2.41; that for VRIQNPSLNENDFIEIELDRQELT was 1.93.
As for VRIQNPSLDENDFIEIELDRQELT, the protein stability index stood at 2.23.
The same measure for VRIQNPSLKENDFIEIELDRQELT: 2.62; for VRIQNPSLRENDFIQIELDRQELT: 2.18.
With VRIQNPSLRENDFIYIELDRQELT, the protein stability index came to 2.04.
Turning to VRIQNPSLRENDFITIELDRQELT, the protein stability index stood at 2.27.
Regarding VRIQNPSLRENDFIRIELDRQELT, the protein stability index worked out at 2.13.
ERIQNPSLRENDFIEIELDRQELT: the protein stability index is 4.77.
Take HRIQNPSLRENDFIEIELDRQELT: the protein stability index worked out at 4.04.
For the variant NRIQNPSLRENDFIEIELDRQELT, the protein stability index stood at 4.46.
For YRIQNPSLRENDFIEIELDRQELT, the protein stability index was determined as 3.41.
With VRIQNPSLRENDFIEIELDRQLLT, the protein stability index is 2.61.
As for VRIQNPSLRENDFIEIELDRQHLT, the protein stability index was 2.57.
The value for VRIQNPSLRENDFIEIELDRQDLT was 2.87; that for VRIQNPSLRENDFIEIELDRQTLT was 2.06.
The value for VRIQNPSLRENDFIEIELDRQMLT was 1.93; that for VRIQNPSLRENDFIEIELDRQKLT was 2.28; that for VRLQNPSLRENDFIEIELDRQELT was 2.75.
The value for VRQQNPSLRENDFIEIELDRQELT was 3.71; that for VRIQNPSLRENDFIECELDRQELT was 4.09.
For VRIQNPSLRENDFIEDELDRQELT, the protein stability index was determined as 5.
The same measure for VRIQNPSLRENDFIEWELDRQELT: 2.89; for VRIQNPSLREMDFIEIELDRQELT: 1.99; for VRIQNPSLREYDFIEIELDRQELT: 1.71.
For the variant VRIQNPSLREFDFIEIELDRQELT, the protein stability index stood at 1.69.
Regarding VRIQNPSLREWDFIEIELDRQELT, the protein stability index amounted to 1.41.
Take VRIQNPSLREVDFIEIELDRQELT: the protein stability index came to 1.97.
Regarding VRIQNPSLRETDFIEIELDRQELT, the protein stability index is 2.47.
The value for VRIQNPSLRENDFQEIELDRQELT was 4.31; that for VRIQNPSLRENDFKEIELDRQELT was 4.47.
In the case of VRIQNPSLRENDFSEIELDRQELT, the protein stability index amounted to 4.42.
